Measured values taken from the supplement of paper PMC9233669.
Variants at the floor of the assay were thinned out.

What was measured:
biotinyl-Val-oxazolone = experiment: self-aminoacylation, catalytic enhancement (BVO) (fold over background); higher = more active; k-Seq, kA / k0A0; sequences stand for … in GGGAAUGGAUCCACAUCUACGAAUUC…UUCACUGCAGACUUGACGAAGCUG
In short: (§1)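 Each biotinyl-aminoacyl-oxazolone, at 2–1250 μM, was incubated with mutagenized RNA pools (0.43 μM) carrying a 21-nt variable region. The 50 μL reactions contained HEPES/NaCl/KCl/MgCl2/CaCl2 buffer with 5% acetonitrile at pH 6.9–7.0 and ran for 90 minutes at room temperature. After streptavidin capture, RNA was measured by qPCR in triplicate and by Illumina sequencing, and catalytic enhancement was calculated as median kA over the uncatalyzed rate from a pseudo-first-order fit of per-sequence fraction reacted.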

biotinyl-Trp-oxazolone = experiment: self-aminoacylation, catalytic enhancement (BWO) (fold over background); higher = more active; k-Seq, kA / k0A0; sequences stand for … in GGGAAUGGAUCCACAUCUACGAAUUC…UUCACUGCAGACUUGACGAAGCUG
In short: as §1

biotinyl-Ile-oxazolone = experiment: self-aminoacylation, catalytic enhancement (BIO) (fold over background); higher = more active; k-Seq, kA / k0A0; sequences stand for … in GGGAAUGGAUCCACAUCUACGAAUUC…UUCACUGCAGACUUGACGAAGCUG
In short: as §1

biotinyl-Leu-oxazolone = experiment: self-aminoacylation, catalytic enhancement (BLO) (fold over background); higher = more active; k-Seq, kA / k0A0; sequences stand for … in GGGAAUGGAUCCACAUCUACGAAUUC…UUCACUGCAGACUUGACGAAGCUG
In short: as §1

biotinyl-Met-oxazolone = experiment: self-aminoacylation, catalytic enhancement (BMO) (fold over background); higher = more active; k-Seq, kA / k0A0; sequences stand for … in GGGAAUGGAUCCACAUCUACGAAUUC…UUCACUGCAGACUUGACGAAGCUG
In short: as §1

biotinyl-Phe-oxazolone = experiment: self-aminoacylation, catalytic enhancement (BFO) (fold over background); higher = more active; k-Seq, kA / k0A0; sequences stand for … in GGGAAUGGAUCCACAUCUACGAAUUC…UUCACUGCAGACUUGACGAAGCUG
In short: as §1

Sequence	self-aminoacylation (biotinyl-Val-oxazolone)	self-aminoacylation (biotinyl-Trp-oxazolone)	self-aminoacylation (biotinyl-Ile-oxazolone)	self-aminoacylation (biotinyl-Leu-oxazolone)	self-aminoacylation (biotinyl-Met-oxazolone)	self-aminoacylation (biotinyl-Phe-oxazolone)
AAGUUUGCUAAUCGUGGCAAG [Fam3.1 aminoacylation ribozyme variant]	0.813	0.625	0.713	0.521	0.604	0.796
AUUCACCUAACUCAUCGGGUG [Fam2.2 aminoacylation ribozyme variant]	2.41	3.17	2.36	4.47	4.05	22.8
AAGACCCUGGUCAUCGAGUGA [Fam2.1 aminoacylation ribozyme variant]	4.66	9.36	4.58	10.2	9.05	21.6
CCACUUCAACCAAUCGGUCUG [Fam1A.1 aminoacylation ribozyme variant]	2.01	36.4	1.68	2.76	1.7	73.2
AUUUCCCUGGUCAUCGAAUGA [Fam2.1 aminoacylation ribozyme variant]	1.12	0.88	1.09	1.02	1.02	0.941
UCACACUUCAACCAAUCGGUC [Fam1B.1 aminoacylation ribozyme variant]	1.75	37.1	1.45	2.44	1.71	54.2
CCACACGUCAAGCAAACGGUC [Fam1B.1 aminoacylation ribozyme variant]	1.37	0.619	0.784	0.809	0.86	0.465
CUACUUUAAACGAUCGGUCUG [Fam1A.1 aminoacylation ribozyme variant]	0.844	0.759	0.808	0.863	0.885	0.589
CUACUUAAAACAAGCGGUCUG [Fam1A.1 aminoacylation ribozyme variant]	0.902	0.982	1.04	0.836	0.926	0.744
AUUACCCCCGUCAUCGAGUGA [Fam2.1 aminoacylation ribozyme variant]	3.12	4.67	2.84	4.7	4.43	18.4
AAGAUUGCUAAUAGUCUCAAG [Fam3.1 aminoacylation ribozyme variant]	1.08	1.18	1.1	1.09	0.751	1.48
AUUACCCUGGUCAACGAGAGA [Fam2.1 aminoacylation ribozyme variant]	0.904	0.896	0.807	0.664	0.82	0.544
AAGUUUGUUAAUAUUCGCAAG [Fam3.1 aminoacylation ribozyme variant]	1.43	1.41	1.55	1.45	1.15	1.17
AAGAUUUCUAAUAGUCGCAAG [Fam3.1 aminoacylation ribozyme variant]	1.45	2.17	1.81	1.49	1.71	3.12
CUACUUCUAACAAUCGGUCCG [Fam1A.1 aminoacylation ribozyme variant]	0.621	0.63	0.708	0.799	0.765	0.505
ACUCACCUAGUUCAUCGGGUG [Fam2.2 aminoacylation ribozyme variant]	3.36	3.85	2.87	3.86	3.46	19.7
AUUCAACCAGGUCAUCGGGUG [Fam2.2 aminoacylation ribozyme variant]	4.22	6.24	4.64	7.64	5.83	58.9
CUACUUCUAACAGUCGGUCUG [Fam1A.1 aminoacylation ribozyme variant]	0.597	0.349	0.521	0.611	0.672	0.402
AUUCACCUUGGUUAUCGGGUG [Fam2.2 aminoacylation ribozyme variant]	3.85	5.27	3.26	5.92	5.13	35.2
CCAGACUUCAAGCAAUCGUUC [Fam1B.1 aminoacylation ribozyme variant]	0.849	0.853	1.06	0.764	0.78	1.08
CUACUUCACACAAUCGAUCUG [Fam1A.1 aminoacylation ribozyme variant]	0.677	0.691	0.888	0.784	0.686	0.726

Sequence	self-aminoacylation (biotinyl-Val-oxazolone)	self-aminoacylation (biotinyl-Trp-oxazolone)	self-aminoacylation (biotinyl-Ile-oxazolone)	self-aminoacylation (biotinyl-Leu-oxazolone)	self-aminoacylation (biotinyl-Met-oxazolone)	self-aminoacylation (biotinyl-Phe-oxazolone)
AGUACCAUGGUCAUCGAGUGA [Fam2.1 aminoacylation ribozyme variant]	4.22	8.32	4.22	7.11	6.66	29.9
AUACACCUACGUCAUCGGGUG [Fam2.2 aminoacylation ribozyme variant]	2.49	3.83	3.12	5.2	4.6	31.8
AUUACCCCGGUCAUAGAGUGA [Fam2.1 aminoacylation ribozyme variant]	3.96	8.65	4.47	8.34	7.91	43.1
CCACACUUCAAGGAAGCGGUC [Fam1B.1 aminoacylation ribozyme variant]	1.28	0.619	0.986	1.13	1.06	0.364
AGUACCCUUGUCAUCGAGUGA [Fam2.1 aminoacylation ribozyme variant]	3.48	6.7	3.06	6.28	5.76	18.4
AUUCACCUUGGUCAACGGGUG [Fam2.2 aminoacylation ribozyme variant]	2.2	3.03	2.22	4.24	3.19	20.3
CAACUUCGAACAAUCGGUCUG [Fam1A.1 aminoacylation ribozyme variant]	1.15	2.15	1.21	0.999	1.1	2.22
AUUCUCCUGGUCAUCGAGUGA [Fam2.1 aminoacylation ribozyme variant]	3.89	7.91	3.67	6.5	6.14	33.7
CUACACUUCAAGCAGUCGGUC [Fam1B.1 aminoacylation ribozyme variant]	0.758	0.628	0.775	0.741	0.739	0.895
CUACUUCAAACAAUUGGACUG [Fam1A.1 aminoacylation ribozyme variant]	0.641	0.443	0.709	0.664	0.633	0.671
AUUCGCCUAGCUCAUCGGGUG [Fam2.2 aminoacylation ribozyme variant]	2.59	2.87	2.6	2.99	2.28	12.7
CUACUUCCAACAAUUGGUCUG [Fam1A.1 aminoacylation ribozyme variant]	0.839	0.536	0.817	0.776	0.718	0.55
CUACUUCAUACAACCGGUCUG [Fam1A.1 aminoacylation ribozyme variant]	0.84	0.415	0.925	0.751	0.621	0.504
AUUACCCUGAUCCUCGAGUGA [Fam2.1 aminoacylation ribozyme variant]	2.52	3.91	2.35	3.73	3.7	8.63
CCACACUGCAAGCAAUCGGUU [Fam1B.1 aminoacylation ribozyme variant]	1.73	1.76	1.77	1.63	2.17	5.76
CCACUACAAACAAUCGGUCUG [Fam1A.1 aminoacylation ribozyme variant]	1.12	0.734	1.02	1.14	0.764	1.38
AAGUUUGCUAAUACUCUCAAG [Fam3.1 aminoacylation ribozyme variant]	0.721	0.527	0.693	0.63	0.512	0.931
CUACAUCAAACAAUCGGUCCG [Fam1A.1 aminoacylation ribozyme variant]	0.872	0.83	0.838	0.805	1.1	0.932
CUACUUCAAACAAUGGGUCAG [Fam1A.1 aminoacylation ribozyme variant]	0.589	0.5	0.6	0.651	0.648	0.92
AUUCCCCUGGUCAUCGAUUGA [Fam2.1 aminoacylation ribozyme variant]	1.79	2.47	1.59	1.73	1.55	1.13
CAGUUUGCUAAUAGGCGCAAG [Fam3.1 aminoacylation ribozyme variant]	1.27	0.744	1.21	1.35	1.14	0.95
